This is an account of results in publication PMC13006735 (Research, 2026).

The term Kd denotes the equilibrium constant for the complex coming apart. The low end stands for a tighter complex, the high end for a looser complex.

For assay [1], the target named is T1, Sudan virus (SUDV) glycoprotein GP (Sudan ebolavirus, strain  for …, UniProt Q7T9D9). The assay can be described thus: cell-based or functional assay.
Assay [2] addresses T1, Sudan virus (SUDV) glycoprotein GP. The assay can be described thus: SPR. The following applies: both partners purified.

B1: ADI-15946 (antibody, V domains shown)
VH: EVQLVESGGGLVKPGGSLRLSCAASGFTFSNAWMSWVRQAPGKGLEWVGRIKSKTDGGTIDYAAPVKGRFTISRDDSKNTVYLQMTSLKTEDTAVYYCTTYTEDMRYFDWLLRGGETFDYWGQGTLVTVSS
VL: DIRLTQSPSSLSASVGDRVTITCRASHYISTYLNWYQQKPGKAPKLLIYAASNLQSGVPSRFSGSGFGTDFSLTISSLQPEDFATYHCQQSYSTPGRYTFGQGTKVEIK
notes: also called wild-type ADI-15946; parental antibody
Take B1: the “IC50, neutralisation of SUDV GP pseudovirus (luciferase, Huh7 cells)” value (from here on “IC50, neutralisation”) in assay [1] stood at 9.16 µg/mL. Besides, the equilibrium dissociation constant (Kd) in assay [2] is 2.24 nM.

B2:  (antibody, V domains shown)
VH: EVQLVESGGGLVKPGGSLRLSCAASGFTFSNAWMSWVRQAPGKGLEWVGRIKSKTDGGTIDYAAPVKGRFTISRDDSKNTVYLQMTSLKTEDTAVYYCTTYTEDMRYFDWLLRGGETFDYWGQGTLVTVSS
VL: DIRLTQSPSSLSASVGDRVTITCRASHYISTYLNWYQQKPGKAPKLLIYYAYNRQSGVPSRFSGSGFGTDFSLTISSLQPEDFATYHCQQSYSTPGRYTFGQGTKVEIK
notes: also called A50Y/S52Y/L54R-LC variant
Take B2: the “IC50, neutralisation” value in assay [1] turned out to be 0.22 µg/mL.

B3:  (antibody, V domains shown)
VH: EVQLVESGGGLVKPGGSLRLSCAASGFTFSNAWMSWVRQAPGKGLEWVGRIKSKTDGGTIDYAAPVKGRFTISRDDSKNTVYLQMTSLKTEDTAVYYCTTYTEDMRYFDWLLRGGETFDYWGQGTLVTVSS
VL: DIRLTQSPSSLSASVGDRVTITCRASQYISTYLNWYQQKPGKAPKLLIYAAYNLQSGVPSRFSGSRFGTDFSLTISSLQPEDFATYHCQQSYSTPGRYTFGQGTKVEIK
notes: also called H27Q/S52Y/G66R-LC variant
As for B3, the “IC50, neutralisation” value in assay [1] was found to be 0.08 µg/mL.
